Data published in the supplement of paper PMC10065799, “High-throughput profiling of sequence recognition by tyrosine kinases and SH2 domains using bacterial peptide display” (eLife, 2023).

Biological target: MERTK (UniProt Q12866)
Experiment: phosphorylation enrichment, bacterial display (enrichment ratio); higher = better substrate or ligand; peptides without Tyr show the background
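For SH2 binding enrichment of the phosphorylated peptide, bacterial display in this document: peptide library displayed on the E. coli surface as eCPX fusions, selected cells deep-sequenced, score is each peptide's frequency after selection divided by its frequency in the input.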
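For phosphorylation enrichment, bacterial display in this document: 11-residue human phosphosite peptides and single-mutation variants displayed on the E. coli surface, counted by deep sequencing, each peptide's frequency after selection divided by its frequency in the unselected input library; frequency after pTyr selection over input frequency; kinase dosed for 20-30% of maximal phosphorylation in three min.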

Chain of MERTK (Q12866 whole entry, looked up): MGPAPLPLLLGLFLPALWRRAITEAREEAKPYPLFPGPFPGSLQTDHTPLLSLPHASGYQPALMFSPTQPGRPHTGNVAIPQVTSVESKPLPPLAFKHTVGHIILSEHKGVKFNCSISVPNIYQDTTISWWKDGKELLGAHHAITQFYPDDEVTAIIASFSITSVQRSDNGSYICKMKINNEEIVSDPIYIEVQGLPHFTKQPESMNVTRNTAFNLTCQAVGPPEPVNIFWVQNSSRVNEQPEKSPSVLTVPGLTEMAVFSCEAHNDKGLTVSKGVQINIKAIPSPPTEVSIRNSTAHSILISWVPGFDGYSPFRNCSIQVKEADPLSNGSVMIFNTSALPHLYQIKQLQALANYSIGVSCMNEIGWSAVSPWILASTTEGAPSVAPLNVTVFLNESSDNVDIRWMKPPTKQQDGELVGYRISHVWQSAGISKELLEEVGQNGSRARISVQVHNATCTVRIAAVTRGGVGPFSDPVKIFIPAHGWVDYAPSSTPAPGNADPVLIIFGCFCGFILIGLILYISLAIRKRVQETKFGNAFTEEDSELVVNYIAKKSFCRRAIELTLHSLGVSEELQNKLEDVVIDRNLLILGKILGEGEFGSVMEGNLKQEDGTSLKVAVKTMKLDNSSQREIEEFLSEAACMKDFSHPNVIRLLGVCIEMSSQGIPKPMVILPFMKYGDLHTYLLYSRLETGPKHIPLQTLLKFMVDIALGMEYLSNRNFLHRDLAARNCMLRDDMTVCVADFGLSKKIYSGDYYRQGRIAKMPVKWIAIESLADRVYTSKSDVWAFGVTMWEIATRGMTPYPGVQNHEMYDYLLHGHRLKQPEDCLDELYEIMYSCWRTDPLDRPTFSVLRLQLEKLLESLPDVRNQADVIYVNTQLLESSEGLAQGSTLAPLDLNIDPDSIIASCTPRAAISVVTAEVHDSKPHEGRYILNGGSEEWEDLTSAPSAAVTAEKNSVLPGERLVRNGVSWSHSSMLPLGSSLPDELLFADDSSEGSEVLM

Row | Sequence | phosphorylation enrichment
1 | VHHLVYHHHHH [CACNA1H_Y519] | 0.52
2 | CLMILYRLKER [PTPRR_Y249] | 0.364
3 | GKFFQYDTWKQ [IGF2_Y116] | 0.485
4 | LSGFCYRLSDQ [PDCD6_Y124_G123C] | 0.566
5 | NVFGNYNQQPS [HNRNPA2B1_Y306_D302V] | 0.375
6 | CTLNVYRQLHN [LUZP1_Y1036_S1034N] | 0.475
7 | VVTFSYKPPGN [RBL2_Y544] | 0.431
8 | SLLLSYYLIKW [NUP160_Y773_P768S] | 0.649
9 | LEPHIYAVADV [MYO9A_Y216] | 1.28
10 | KVALPYKPFFF [POLE_Y100_YF] | 0.41
11 | AGREIYESDKC [TTN_Y4424] | 0.447
12 | PVFIKYLPEWT [PSEN1_Y240_L235P] | 0.475
13 | KKLHKYNTQFQ [PIK3R1_Y452_E451K] | 0.487
14 | LFDHIYTTQSD [RET_Y928] | 1.96
15 | DSFATYFRWVL [H2BW1_Y84_R87W] | 4.5
16 | FEKFLYFLPAS [DYNC2H1_Y346_H341Y_YF] | 1.95
17 | NQDRTYYERVR [SPEN_Y632_S635R] | 0.452

Row | Sequence | phosphorylation enrichment
18 | PLGKDYRKVEG [MAP1A_Y1909_A1912V] | 0.741
19 | CRERPYGGGGG [FUS_Y526_R521C] | 0.438
20 | QFNIQYSSSAA [ERBB2IP_Y981_YF] | 0.962
21 | FADGVYLALEE [DUOX2_Y70_Q71L_YF] | 0.641
22 | AKQVGYENAGT [PC_Y304] | 0.432
23 | YFVVEYRDQKP [MUC17_Y4332] | 4.97
24 | FAKTQYPDIFA [CRX_Y63_V66I_YF] | 0.489
25 | EHAGEYGAEAL [HBA1_Y25_A20E] | 0.455
26 | RLCQDYDIIGP [ANK1_Y1073_T1075I] | 1.26
27 | AAAAMYTFLPD [MYORG_Y36] | 10.9
28 | RRESQYQENRG [LRCH3_Y354] | 0.472
29 | CKQGKYLNWDA [ATM_Y54_S49C] | 0.39
30 | KGELRYMHSRV [ABCD1_Y281] | 0.378
31 | SFHCSYSEIKD [DCLRE1C_Y322_S320C] | 0.497
32 | AAVDNYCRHNF [HLA-DRB1_Y107_T106N_YF] | 0.326
33 | RSFPSYYTSHV [NEFL_Y442] | 7.71

Biological target: SHP2-C SH2
Experiment: SH2 binding enrichment of the phosphorylated peptide, bacterial display (enrichment ratio); higher = better substrate or ligand; peptides without Tyr show the background

Row | SH2 binding enrichment | Sequence
34 | 1.22 | CLMILYRLKER [PTPRR_Y249]
35 | 0.708 | CTLNVYRQLHN [LUZP1_Y1036_S1034N]
36 | 1.01 | SLLLSYYLIKW [NUP160_Y773_P768S]
37 | 1.28 | KVALPYKPFFF [POLE_Y100_YF]
38 | 1.4 | AGREIYESDKC [TTN_Y4424]
39 | 1.04 | NQDRTYYERVR [SPEN_Y632_S635R]
40 | 0.593 | CRERPYGGGGG [FUS_Y526_R521C]
41 | 0.646 | AKQVGYENAGT [PC_Y304]
42 | 0.744 | AAAAMYTFLPD [MYORG_Y36]
43 | 1.24 | CKQGKYLNWDA [ATM_Y54_S49C]
44 | 1.33 | KGELRYMHSRV [ABCD1_Y281]
45 | 0.772 | AAVDNYCRHNF [HLA-DRB1_Y107_T106N_YF]

More lines, now with the values behind:

Row | Sequence | SH2 binding enrichment
46 | VHHLVYHHHHH [CACNA1H_Y519] | 1.36
47 | GKFFQYDTWKQ [IGF2_Y116] | 0.755
48 | LSGFCYRLSDQ [PDCD6_Y124_G123C] | 0.776
49 | NVFGNYNQQPS [HNRNPA2B1_Y306_D302V] | 0.682
50 | VVTFSYKPPGN [RBL2_Y544] | 0.7
51 | LEPHIYAVADV [MYO9A_Y216] | 0.789
52 | PVFIKYLPEWT [PSEN1_Y240_L235P] | 0.884
53 | KKLHKYNTQFQ [PIK3R1_Y452_E451K] | 1.67
54 | LFDHIYTTQSD [RET_Y928] | 0.796
55 | DSFATYFRWVL [H2BW1_Y84_R87W] | 1.32
56 | FEKFLYFLPAS [DYNC2H1_Y346_H341Y_YF] | 0.759
57 | PLGKDYRKVEG [MAP1A_Y1909_A1912V] | 0.706
58 | QFNIQYSSSAA [ERBB2IP_Y981_YF] | 0.623
59 | FADGVYLALEE [DUOX2_Y70_Q71L_YF] | 0.623
60 | YFVVEYRDQKP [MUC17_Y4332] | 5.95
61 | FAKTQYPDIFA [CRX_Y63_V66I_YF] | 0.529
62 | EHAGEYGAEAL [HBA1_Y25_A20E] | 0.769
63 | RLCQDYDIIGP [ANK1_Y1073_T1075I] | 0.781
64 | RRESQYQENRG [LRCH3_Y354] | 0.624
65 | SFHCSYSEIKD [DCLRE1C_Y322_S320C] | 2.29
66 | RSFPSYYTSHV [NEFL_Y442] | 1.11

Biological target: c-Src SH2
Experiment: as above

Row | SH2 binding enrichment | Sequence
67 | 0.901 | CLMILYRLKER [PTPRR_Y249]
68 | 0.382 | CTLNVYRQLHN [LUZP1_Y1036_S1034N]
69 | 0.925 | SLLLSYYLIKW [NUP160_Y773_P768S]
70 | 1.12 | KVALPYKPFFF [POLE_Y100_YF]
71 | 1.03 | AGREIYESDKC [TTN_Y4424]
72 | 3.98 | NQDRTYYERVR [SPEN_Y632_S635R]
73 | 0.651 | CRERPYGGGGG [FUS_Y526_R521C]
74 | 1.19 | AKQVGYENAGT [PC_Y304]
75 | 4.32 | AAAAMYTFLPD [MYORG_Y36]
76 | 0.735 | CKQGKYLNWDA [ATM_Y54_S49C]
77 | 1.27 | KGELRYMHSRV [ABCD1_Y281]
78 | 0.583 | AAVDNYCRHNF [HLA-DRB1_Y107_T106N_YF]

More lines, now with the values behind:

Row | Sequence | SH2 binding enrichment
79 | VHHLVYHHHHH [CACNA1H_Y519] | 1.15
80 | GKFFQYDTWKQ [IGF2_Y116] | 0.742
81 | LSGFCYRLSDQ [PDCD6_Y124_G123C] | 0.471
82 | NVFGNYNQQPS [HNRNPA2B1_Y306_D302V] | 0.584
83 | VVTFSYKPPGN [RBL2_Y544] | 0.711
84 | LEPHIYAVADV [MYO9A_Y216] | 3.29
85 | PVFIKYLPEWT [PSEN1_Y240_L235P] | 0.606
86 | KKLHKYNTQFQ [PIK3R1_Y452_E451K] | 1.24
87 | LFDHIYTTQSD [RET_Y928] | 0.583
88 | DSFATYFRWVL [H2BW1_Y84_R87W] | 0.953
89 | FEKFLYFLPAS [DYNC2H1_Y346_H341Y_YF] | 0.544
90 | PLGKDYRKVEG [MAP1A_Y1909_A1912V] | 0.385
91 | QFNIQYSSSAA [ERBB2IP_Y981_YF] | 0.557
92 | FADGVYLALEE [DUOX2_Y70_Q71L_YF] | 0.558
93 | YFVVEYRDQKP [MUC17_Y4332] | 3.98
94 | FAKTQYPDIFA [CRX_Y63_V66I_YF] | 0.456
95 | EHAGEYGAEAL [HBA1_Y25_A20E] | 0.674
96 | RLCQDYDIIGP [ANK1_Y1073_T1075I] | 1.29
97 | RRESQYQENRG [LRCH3_Y354] | 0.49
98 | SFHCSYSEIKD [DCLRE1C_Y322_S320C] | 3.86
99 | RSFPSYYTSHV [NEFL_Y442] | 1.28

Biological target: Grb2 SH2 (UniProt P62993)
Experiment: as above

Row | SH2 binding enrichment | Sequence
100 | 1.25 | CLMILYRLKER [PTPRR_Y249]
101 | 0.796 | CTLNVYRQLHN [LUZP1_Y1036_S1034N]
102 | 1.27 | SLLLSYYLIKW [NUP160_Y773_P768S]
103 | 1.3 | KVALPYKPFFF [POLE_Y100_YF]
104 | 1.06 | AGREIYESDKC [TTN_Y4424]
105 | 0.901 | NQDRTYYERVR [SPEN_Y632_S635R]
106 | 0.87 | CRERPYGGGGG [FUS_Y526_R521C]
107 | 4.11 | AKQVGYENAGT [PC_Y304]
108 | 1.12 | AAAAMYTFLPD [MYORG_Y36]
109 | 5.58 | CKQGKYLNWDA [ATM_Y54_S49C]
110 | 1.38 | KGELRYMHSRV [ABCD1_Y281]
111 | 0.877 | AAVDNYCRHNF [HLA-DRB1_Y107_T106N_YF]

The remaining lines, values behind:

Row | Sequence | SH2 binding enrichment
112 | VHHLVYHHHHH [CACNA1H_Y519] | 1.28
113 | GKFFQYDTWKQ [IGF2_Y116] | 0.906
114 | LSGFCYRLSDQ [PDCD6_Y124_G123C] | 0.948
115 | NVFGNYNQQPS [HNRNPA2B1_Y306_D302V] | 0.822
116 | VVTFSYKPPGN [RBL2_Y544] | 0.979
117 | LEPHIYAVADV [MYO9A_Y216] | 0.979
118 | PVFIKYLPEWT [PSEN1_Y240_L235P] | 1.28
119 | KKLHKYNTQFQ [PIK3R1_Y452_E451K] | 1.42
120 | LFDHIYTTQSD [RET_Y928] | 0.925
121 | DSFATYFRWVL [H2BW1_Y84_R87W] | 1.28
122 | FEKFLYFLPAS [DYNC2H1_Y346_H341Y_YF] | 0.84
123 | PLGKDYRKVEG [MAP1A_Y1909_A1912V] | 0.556
124 | QFNIQYSSSAA [ERBB2IP_Y981_YF] | 0.705
125 | FADGVYLALEE [DUOX2_Y70_Q71L_YF] | 0.849
126 | YFVVEYRDQKP [MUC17_Y4332] | 1.17
127 | FAKTQYPDIFA [CRX_Y63_V66I_YF] | 0.849
128 | EHAGEYGAEAL [HBA1_Y25_A20E] | 0.865
129 | RLCQDYDIIGP [ANK1_Y1073_T1075I] | 0.703
130 | RRESQYQENRG [LRCH3_Y354] | 0.982
131 | SFHCSYSEIKD [DCLRE1C_Y322_S320C] | 0.704
132 | RSFPSYYTSHV [NEFL_Y442] | 1.17
